Consider three molecules from PMC12560621, “β-Branching in the biosynthesis of bongkrekic acid: a complex affair” (RSC Advances, 2025).

Series [1] deals with BonH (Burkholderia gladioli pv. cocovenenans). The series can be described thus: SEC; analytical size exclusion chromatography of the purified protein in solution; conditions in the supplementary information.
Series [2] deals with BonA_ACP1a (Burkholderia gladioli pv. cocovenenans).
In series [3] the target is BonA_ACP2a (Burkholderia gladioli pv. cocovenenans).
Series [4] concerns the molecule itself. Kind of series: SEC; analytical size exclusion chromatography of the purified protein in solution; conditions in the supplementary information. (In general: In gel filtration, larger molecules generally elute earlier.)

As a reminder, the stoichiometry N is a count of units in the complex or per binding partner. Molecule BonH (enzyme) gave a stoichiometry N in series [1] of 3. This molecule gave a BonH-catalysed conversion of HMG-BonA ACP1a to the MG-ACP product, by ESMS in series [2] of 15%.

Take BonI (enzyme): in series [3], the BonI-catalysed decarboxylation of MG-BonA ACP2a (made by BonH from HMG-BonA ACP2a) to endo-β-methyl-BonA ACP2a, by ESMS and Ppant ejection amounted to 50%. Moreover, the BonI-catalysed conversion (with BonH) of HMG-BonA ACP1a to the endo-β-methyl-ACP product, by ESMS in series [2] was 15%.

B1: BonI (enzyme)
chain: MSRPAHFHGSATEMSERVVHLAELEPGIVRITLEDRTHKNAFSDRLLNGIVEAFAEVAANPSWKAVILTGYDTYFCTGGTQDMLLKLSKGEGRFTDFPIYNLPLTCEIPVIAAMQGHAVGGGLALGLFADFVVLSRESVYTANFMKYGFTPGFGSTLVMREKLGLPLAQALLMTAANYRGDELARHGIAFPVLPRAEVAAHALDIARQLADKPRHSLVTLKAHLNAPLRAMLPEVTAREVEMHERTFPHPEVQQRIRALFGS
As for B1, the “stoichiometry N” value in series [4] was 3.
